According to the DeepSol protein solubility set:

test: soluble on expression in E. coli; label from the status in PepcDB or PDB records

| Sequence | soluble on expression in E. coli |
| --- | --- |
| MGSDKIHHHHHHMQKLVEQVWDYTKHAKFYSYRPNYAPKTIDMLISLVGKKDIKVADIGAGTGNLSIMLLERGCKVVSVEPNDAMREIGIERTKDQKIDWVRATGLNSTLQNSEFDWVTFGSSFNVMDRNEALEEAHRLLKSEGYFSCMWNHRDLNDPVQKIAEDTIVEFVPNYTRGTRREDQRPIIESRKDLFDNIVYIEEDFYFHQSIENYINAWKSVKNPYWDLETDEGNELFNKISNKISQRLPKEFSIKYTTRCWSAKKI | not soluble |
| AHHHHHHGSSKNYKKHQAYIAGRDKMKVAVITGASRGIGEAIAKALAEDGYSLALGARSVDRLEKIAKELSEKHGVEVFYDYLDVSKPESVEEFARKTLAHFGDVDVVVANAGLGYFGRLEELTEEQFHEMIEVNLLGVWRTIKAFLNSLKRTGGVAIVVTSDVSARLLPYGGGYVATKWAARALVRTFQIENPDVRFFELRPGAVDTYFGGSKAGKPKEQGYLKPEEVAEAVKYLLRLPKDVRVEELMLRSIYQKPEY | soluble |
| MVALPTINQLVRKGREKVRKKSKVPALKGAPFRRGVCTVVRTVTPKKPNSALRKVAKVRLTSGYEVTAYIPGEGHNLQEHSVVLIRGGRVKDLPGVRYHIVRGVYDAAGVKDRKKSRSKYGTKKPKEAAKTAAKK | soluble |
| MNTVRSEKDSMGAIDVPADKLWGAQTQRSLEHFRISTEKMPTSLIHALALTKRAAAKVNEDLGLLSEEKASAIRQAADEVLAGQHDDEFPLAIWQTGSGTQSNMNMNEVLANRASELLGGVRGMERKVHPNDDVNKSQSSNDVFPTAMHVAALLALRKQLIPQLKTLTQTLNEKSRAFADIVKIGRTHLQDATPLTLGQEISGWVAMLEHNLKHIEYSLPHVAELALGGTAVGTGLNTHPEYARRVADELAVITCAPFVTAPNKFEALATCDALVQAHGALKGLAASLMKIANDVRWLASGPRCGIGEISIPENEPGSSIMPGKVNPTQCEALTMLCCQVMGNDVAINMGGASGNFELNVFRPMVIHNFLQSVRLLADGMESFNKHCAVGIEPNRERINQLLNESLMLVTALNTHIGYDKAAEIAKKAHKEGLTLKAAALALGYLSEAEFDSWVRPEQMVGSMKAGRHHHHH | soluble |
| MYREFYGLTEKPFSKTPDPRYLFLSRGHREALARLQYAVEERELALLTGDIGCGKTTISRALMDAVGNDGCFCFIVNPRLSAVEFLRTVARSLGIAEPAAAKDELLRQLTEAVYRLEGEKRCPVIIIDEAQLIPDQEVFDEIRLLTNFQLDDRNLMSVILMGQPELRQILSEPAHEALRQRIAMHYHLQPLSLEETLEYVDFRVEVAGGPQGLFSPDAIRRIYELSGGVPRKINILATNALLVGFGKDSAWIDASLVEELRDEASLYLEHHHHHH | not soluble |
| MDRTLYQKQMLDLVKDSKLATKLENSIFKWTNDYMETNITPPFMFENFYQDKFSDIIKHLNIKNNPYLLEAIKTGKIKPENIAFLKPEEIYPEKFEAILNKRKLEKAIKDNQATTDAFKCPRCKKRKAKIDQKQIRAGDEPMTTFVTCVECGNVQKF | not soluble |
| MSLRMRVGKFDYLNNFLPYYFLNEKVEIVEANPREMASMLLSGRIDYAPVPAFFYLKNRERLRHYEFCVASEGKVLSVVVVSRKKELDDGSIAVTPHSLTSVNLLKILLAERGMKNMLVEVNTAKASEMLELCPHALVIGDEAIKARMIYKVVMDLGEEWYELTSLPAVFGISASLKETNAEEMDRKILMATEEGYRRFDEVVRAAEKAFKMPREFLEEYFRTLKFRLSSKERRGLDEFEKYCRDYEGHHHHHH | soluble |
| MIPLVSIIVPMYNVEPFIEECIDSLLRQTLSDIEIILVNDGTPDRSGEIAEDYAKRDARIRVIHQANGGLSSARNTGIKAARGTYIGFVDGDDYVSSAMFQRLTEEAEQNQLDIVGCGFYKQSSDRRTYVPPQLEANRVLTKPEMTEQLKHAHETRFIWYVWRYLYRRELFERANLLFDEDIRFAEDSPFNLSAFREAERVKMLDEGLYIYRENPNSLTEIPYKPAMDEHLQKQYQAKIAFYNHYGLAGACKEDLNVYICRHQLPMLLANACASPNSPKDIKKKIRQILSYDMVRQAVRHTPFQHEKLLRGERLVLALCKWRLTFLIKLFFEQRGTMKGSAKQALEHHHHHH | not soluble |
| MFNHVTVLLKETVDGLDIKPDGTYVDCTLGGGGHSSYLLSQLTEGGRLIAFDQDEIAIQNAKEKFSSYGEQFITVKSNFRYLSEKLQELGITEVDGILFDLGVSSPQLDTPERGFSYHHDAPLDMRMDQDAPLTAYDVVNSWSYEQLVRIFFQYGEEKFSKQIARKIEAYRENKAIETTGELVELIKEGIPAPARRTGGHPAKRVFQAIRIAVNDELKVFEEALESAIEMVKPGGRVSVITFHSLEDRICKTTFKRNSTTPQLPPGLPIIPDEFKPKLKLITRKPILPSDIELEENNRARSAKLRIAEKR | not soluble |
| MGSDKIHHHHHHMNFTKIAVSAGCILALCAGCGANDTSSTKEKASSEKSGVTKEITASVNKMETIISKLNDSVEKGDQKEIEKKGKELNSYWLSFENDIRSDYPFEYTEIEKHLQPIYTEAQKDKPDAGKIKTESESLKASLEDLTEAKKSGKKASDQLAKAADEYKGYVKEQSDQLVKATEAFTGAVKSGDIEKSKTLYAKARVYYERIEPIAESLGDLDPKIDARENDVEEGDKWTGFHKLEKAIWKDQDISGEKATADQLLKDVKELDGSIQSLKLTPEQIVAGAMELLNEAGISKITGEEERYSRIDLVDLMANVEGSEAVYQTVKSALVKDHSDLTEKLDTEFSEFEVLMAKYKTNDQSYTSYDKLSEKQIRELSTKLTTLSETMSKIANVL | not soluble |
| DIQMTQSPSSLSASVGDRVTITCRASGNIHNYLAWYQQKPGKAPKLLIYYTTTLADGVPSRFSGSGSGTDYTFTISSLQPEDIATYYCQHFWSTPRTFGQGTKVEIKR | soluble |
| MVHYYRLSLKSRQKAPKIVNSKYNSILNIALKNFRLCKKHKTKKPVQILALLQEIIPKSYFGTTTNLKRFYKVVEKILTQSSFECIHLSVLHKCYDYDAIPWLQNVEPNLRPKLLLKHNLFLLDNIVKPIIAFYYKPIKTLNGHEIKFIRKEEYISFESKVFHKLKKMKYLVEVQDEVKPRGVLNIIPKQDNFRAIVSIFPDSARKPFFKLLTSKIYKVLEEKYKTSGSLYTCWSEFTQKTQGQIYGIKVDIRDAYGNVKIPVLCKLIQSIPTHLLDSEKKNFIVDHISNQFVAFRRKIYKWNHGLLQGDPLSGCLCELYMAFMDRLYFSNLDKDAFIHRTVDDYFFCSPHPHKVYDFELLIKGVYQVNPTKTRTNLPTHRHPQDEIPYCGKIFNLTTRQVRTLYKLPPNYEIRHKFKLWNFNNQISDDNPARFLQKAMDFPFICNSFTKFEFNTVFNDQRTVFANFYDAMICVAYKFDAAMMALRTSFLVNDFGFIWLVLSSTVRAYASRAFKKIVTYKGGKYRKVTFQCLKSIAWRAFLAVLKRRTEIYKGLIDRIKSREKLTMKFHDGEVDASYFCKLPEKFRFVKINRKASI | soluble |
| MSLANKPLAKALETISGIPITPFRKSDGSIDWHHYKETVDRIVDNGIDVIVPCGNTSEFYALSLEEAKEEVRRTVEYVHGRALVVAGIGYATSTAIELGNAAKAAGADAVMIHMPIHPYVTAGGVYAYFRDIIEALDFPSLVYFKDPEISDRVLVDLAPLQNLVGVKYAINDLPRFAKVVRSIPEEHQIAWICGTAEKWAPFFWHAGAKGFTSGLVNLLPQKAVEMLEALRNNDNDAVWRIWEDIVPFEDLRGKYNQGNNVVVIKEAMEMLRQNAGVTRAPVNELSNEDKQLVTELLSSWKLLQPTKGEGHHHHHH | soluble |
| VDIYASMTPAKDVGGDFYDFFQIDDERIGLVIADVSGKGVPASLFMAVSRTLLRATALRGVSSAECLTYANKLLCKESLDSMFVTVFYGIYHYKTGMMDYTNAGHNPPYLLRGGRTVECLPVASNFVVGVFDDIEFESNTLTFGIGDTLLLYTDGVTEAFNDKREQFSESNLQDILASMHESSSAKEVVTSVLQSVKTFSGDYPQSDDITLLSLQRIK | not soluble |
| MSRRAPMFKPLPITLQRGALRLEPLVEADIPELVSLAEANREALQYMDGPTRPDWYRQSLAEQREGRALPLAVRLGVQLVGTTRFAEFLPALPACEIGWTWLDQAQHGSGLNRMIKYLMLKHAFDNLRMVRVQLSTAASNLRAQGAIDKLGAQREGVLRNHRRLAGGRLDDTFVYSITDHEWPQVKAALEASFTG | soluble |
| MMSKIFDLVVIGAGSGGLEAAWNAATLYKKRVAVIDVQMVHGPPFFSALGGTCVNVGCVPKKLMVTGAQYMEHLRESAGFGWEFDRTTLRAEWKNLIAVKDEAVLNINKSYDEMFRDTEGLEFFLGWGSLESKNVVNVRESADPASAVKERLETEHILLASGSWPHMPNIPGIEHCISSNEAFYLPEPPRRVLTVGGGFISVEFAGIFNAYKPKDGQVTLCYRGEMILRGFDHTLREELTKQLTANGIQILTKENPAKVELNADGSKSVTFESGKKMDFDLVMMAIGRSPRTKDLQLQNAGVMIKNGGVQVDEYSRTNVSNIYAIGDVTNRVMLTPVAINEAAALVDTVFGTTPRKTDHTRVASAVFSIPPIGTCGLIEEVASKRYEVVAVYLSSFTPLMHKVSGSKYKTFVAKIITNHSDGTVLGVHLLGDNAPEIIQGIGICLKLNAKISDFYNTIGVHPTSAEELCSMRTPSYYYVKGEKMEKPSEASL | soluble |
| MGSDKIHHHHHHMLNYSLRPENRGKNLESSWQYMFKTYPYLKPWIDSLKQNQALKDTFIYSPDHVKLHAYYVASSRPTAKTAVIVHGYTDNAIRMMMIGYLYNKKLDFNILLPDLRDTGLSGGNAIQMGWLDRKDVTQWMEVANRIYGDSTSMVVHGISMGAATTMMVSGEPQPDYVKCFVEDCGYTSVWDQFSKELKAQFGLPQFPLMYTADWLCQLEYGWGFKEASALKQVARCHLPMFFIHGDKDDYVPTWMVYKLYEAKPQPKALWIVPEADHAHSYLFNTEEYTQKVKAFVDKYIQ | not soluble |
| MASSKNYLEFVLEQLSGLDDVTYRSMMGEYILYFRGKIIGGIYDDRFLVKPVQAVLDKIDQSSFEFPYKGAKEMI | not soluble |
| MPVLHNRISNDELKAKMLAESEPRTTISFYKYFTIASPQQTRDALYQVFTALDVFGRVYLAHEGINAQISVPQSKLETFRQQLYTFDPALDGVRLNIALEDDGKSFWVLRMKVRDRIVADGIDDPTFDASNVGDYLKAADVNAMLDDPDAVFIDMRNHYEYEVGHFENALEIPADTFREQLPKAVEMLREHADKKIVMYCTGGIRCEKASAWMKHNGFNKVWHIEGGIIEYARRARAQGLPVRFIGKNFVFDERMGERISDEVIAHCHQCGASCDSHTNCKNDGCHLLFIQCPQCASKFNGCCSEQCCEELALPEEEQRRRRAGRENGNKIFNKSRGRLNSKLSIPDPAEAAALEHHHHHH | soluble |
| MLNLSRLSRKLLGWLGRPLSAAHSGEVRQRGPQTHVIILDGTMSTLEPGRETHAGQTYRLMCEMGARVSVFYEAGVQWTSWRTTPDVMMGRGLNRQIRRAYGYLASRYRPGDRIFLIGYSRGAYAVRSLAGVIDMVGLLKAEHATVRNIRQAYRHYECDVQGPHAQVFRDLYCHRDVMIEMVGVWDTVKALGLRLPVLWRLSEQRHAFHSHHLGRSVRHGYHALALNETRNVFEPILWDCKPEFRGHVEQVWFRGTHGDVGGQLGGDERARPLANLSLVWMLERAEHLGLPLPKDWHARFPTDPNAPSVGTWSGWGKIFLLRSARTVGRDPSERLHESVIGDTLPEGLPAPYLRSRSFGLEHHHHHH | soluble |
